Source: the DeepSol protein solubility set

test: soluble on expression in E. coli; label from the status in PepcDB or PDB records

Row | Sequence | soluble on expression in E. coli
1 | MRQYVCCNYNEKEIKMKKFHFTDTSLFWGFSEEEAESVLKCLSAVNKTYKKDEYIFRMGDTITSVGMVLTGSVQVIREDYWGNRQIIAVMGEGQLFGESYACAGGEPLMVSVMAEENTEVLFLEVGRLLTVCSMACRFHSRVIQNLLKVIAGRNLTLTTKIDHMSKKTIREKVLSYLSYQAEKQGKNRFEIPFNRQQLADYLAVDRSALSAELSKMQKEKLISYDRNHFILP | not soluble
2 | MRRILVLTKNILVEQTFQQQLQHLNYEVFCTNCCEETIEHELTFFNYFDAIVLSETLSQNDCLRLLGSLSSLEKPIYRRSQSMCNKREAEIWQERGIIRWLGLKDSLEDIREKIDTVDQSFAEVTAELLDDQVKKIRFTKNEQRFLKILYQHAHEGLDRDQICRLLWQKEPDASTKSQLSFVCKRVKQKFSDAGMNEEIITTYWGKGYQINEQILPYLEQTLFETAQ | not soluble
3 | MRRNIRVTLGAATIVAALGLSGCSHPEFKRSSPPAPSLPPVTSSPLEAAPITPLPAPEALIDVLSRLADPAVPGTNKVQLIEGATPENAAALDRFTTALRDGSYLPMTFAANDIAWSDNKPSDVMATVVVTTAHPDNREFTFPMEFVSFKGGWQLSRQTAEMLLAMGNSPDSTPSATSPAPAPSPTPPG | soluble
4 | MRRYFGTDGVRGEAGKPPLTPEFVLKLGQAAGAYFLAQEKRPVVLLAKDTRESSDLLEAALAAGLMSQGVRVEHLGVLPTPGVAHLTKALKATAGAVISASHNPYQDNGIKFFGPTGEKLPDGAEEEIERLLLEDHPTRGIGTVGDFREAERMYLDFLLAHAPDLTGLKVGLDLAHGATYRIGPKLFQKAGAEVMAFFNTPDGRNINRGCGSTHPEALSRFVVELGLDLGIAFDGDGDRVQFIDRKGRLFHGDHVLYLAALAFGEKGVVGTVMSNMALEVALKERGLAFHRAAVGDRYVLEKLKETGLALGGEPSGHVIFLRHHTTGDGLLTALLTLKALKALGGDLADWYEALPLYPQVLLNVRVSDKAKVMADPRLGEAVREAEARLGGRGRVNVRPSGTEPVVRVMVEAEEGAEEVARELAERVRALSQEAQAV | soluble
5 | MRRYLMDYSQYNLEKTGYLKEDFRLFHINDQTKKDFSYHYHDFHKIIVFISGKVTYHIEGKAYHLKPRDILLVSQGAIHKPEIDPSVPYERYIFWIRDDLSCQELNTCFQKANDRSFNLVRADSALQERLKDLLPEIEQTLQNKHFGDTVLRNALFTQFMIYINRIFLRTSSSPDKKTYSSDTQ | not soluble
6 | MRSAVSKVEESIEVAVPVSTAYNQWTQFEEFPQFMGGVERIEQQTATLTHWVTKVGGVTREFDAEIVEQIPDEQVSWTTVGGDVHQAGVVTFHRLDDRRTKVMLQMDHDSKGVVDAVGDKLGVVKHQVSEDLKRFKSFIENRGLEHHHHHH | not soluble
7 | MRSLARGVTTNISKLIEARPKNTGQTVYLTHVKWVTGKSQLEHYFKRYGSIQSVNMFYDPDTGLHRGFASITFDSKDGANKAIEQRPHVIDGDRVDVEPYIPLISKNKKKDLML | not soluble
8 | MRSLTHIAKIELPPVRRVTYVKHYSIQPANLEFNAEGTPVSRDFDDVYFSNDNGLEETRYVFLGGNQLEARFPEHPHPLFVVAESGFGTGLNFLTLWQAFDQFREAHPQAQLQRLHFISFEKFPLTRADLALAHQHWPELAPWAEQLQAQWPMPLPGCHRLLLDEGRVTLDLWFGDINELISQLDDSLNQKVDAWFLDGFAPAKNPDMWTQNLFNAMARLARPGGTLATFTSAGFVRRGLQEAGFTMQKRKGFGRKREMLCGVMEQTLPLPCSTPWFNRTGSSKREVAIIGGGIASALLSLALLRRGWQVTLYCADEAPALGASGNRQGALYPLLSKHDEALNRFFSNGFTFARRLYDSLPVKFDHDWCGVTQLGWDEKSQHKIAQMLSMDLPEELAVAVEANAVEQITGVTTNCSGITYPQGGWLCPAELTRNVLELAQQQGLQIYYQYQLQDLSRKDDCWLLTFAGDQQATHSVVVLANGHQISRFSQTSSLPVYSVAGQVSHIPTTPELAKLKQVLCYDGYLTPQNPANQHHCIGASYHRGSEETAYSEDNQQQNRQRLIDCFPHAQWAKTVDVSKKEARCGVRCATRDHLPMVGNVPDYEATLVEYASLAEQKDKAVSAPVFDDLFMFAALGSRGLCSAPLCAEILAAQMSDEPIPMDASTLAALNPNRLWVRKLLKGKAVKAG | not soluble
9 | MRSQRVFTTIDTHTGGNPTRTLISGLPKLIGETMAEKMLHMKKEYDWIRKLLMNEPRGHDVMSGALLTDPCHPEADIGVIYIETGGYLPMCGHDTIGVCTALVESGLIPVVEPITSLKLDTPAGLVEVDIAVQDGKAKEVSFCNIPAFLLKNITVQVKDIGTIEADIAYGGNFYAIIDAKSVGLELIPENASTIIDKAIHIRNTINEKFEIIHPEYSFIRGLTHVEFYTDATHECAHVKNTVIVPPGGIDRSPCGTGTSAKLAVLYAQKEIKIGEEFIHESIVGSLFKGYVVNTTHVENIEAVITKITGSAWLMGMHKFFYNEMDPLKEGFLLIPPMEHETEDIKMAGDPNSLEHHHHHH | soluble
10 | MRSTEVGRVVEDFIVLPPTPKSKWKLSDFELLHKLGGGNYGDVHLASVKDCNFVCALKRLSIKKLADFDIATQLRREIEIAFNTRHKYLLRTYAYFFDETDIYLIMEPCSNGMLYTELNRVKCFAPPTAARYVAQLAEALLYLHQHHILHRDIKPENILLDHNNNIKLADFGWSVHDPDNRRKTSCGTPEYFPPEIVGRQAYDTSADLWCLGIFCYELLVGKTPFVGKDTDQICKNIHSMHFKIPENIPSEAKDLIANLLLRDGSRRLALHRVVNHQFLLKYYYLPNNLQPPTGKRPRLDAEPTAGKEN | not soluble
11 | MRSTKVIHIVGCHAEGEVGDVIVGGVAPPPGETVWEQSRFIANDETLRNFVLNKPRGGVFRHVNLLVPPKDPRAQMGFIIMEPADTPPMSGSNSICVSTVLLDSGIIAMQEPVTHMVLEAPGGIIEVEAECRNGKAERISVRNVPSFADRLDAPLDVTGLGTIMVDTAYGGDSFVIVDAAQIGMKIEPGQARELAEIGVKITKAANEQLGFRHPERDWRHISFCQITEPVTREGDVLTGVNTVAIRPAKFDRSPTGTGCSARMAVLHAKGQMKAGERFIGKSVLGTEFHCRLDKVLELGGKPAISPIISGRAWVTGTSQLMLDPSDPFPHGYRLSDTWPRDELEHHHHHH | soluble
12 | MRTLAVISAGLSTPSSTRQIADSISEAVTAAVSARGEALSVSTIELSELIPDLMTAMTTRVHTTKLEEITSALSASDGLVVATPVFKASYTGLFKMFFDILDTDALTGMPTIIAATAGSARHSLVLDYALRPLLSYMRAVVVPTGVFAATEDFGGPEGAEFNKRIARAAGELASLIVEESGNVGLEHHHHHH | not soluble
13 | MRTLFYSQLMYEAAKRQPHPHRCADGRTIADLSAQDLKKLNIAQLFFVAGRESEASYGDAYHRYHLYGAKQFEEYARKHLTHLFSEKEIVLYSRCIEDRIGDRFDETAEGYLIHLSHMIDLMRCKSPVEVFIGHSRGVSGIVPTLIQLFGREDGLDIMHYARSLFAATGEAVPYISSSEWPHLGIESDRVERALKIVGPLEVEGQEADAKKTAQAGFSVDGCYGALVKVDTPDWYHQVKEKEDYDVDEVIALPPQITIREEPPKANESFLLSLLRHVFWCCPSNQKRDDENTDVLEKKAQL | not soluble
14 | MRTLLITGPGGSGRTTVAAATALRASRTGTRTLVLSADRTDTLGAALGVPTGGAPVEAAPGLTAWRPDAADRFRADLTAFQDRAATALDFLGAARLDAEELTPLPGAEELALLRALRDAALSEAYDLLVVDLPPAPQALALLALPEELRRYLRRLLPPERQAARALRPVLGRLAGVPMPADWLYETAARWDVELAAVEAVVEDRATTVRLVAEPGPAGADAVRAAATGFALRAVRIDTLIANRLLPEEADDAWSAGLAAQQRKFLEEWRGEYRLHELPHLGHDPRGADDLAALAVPGVNDAPGPVEWSVADRLADDGVLVWHIPLPGAIRDELDLLRRGDELVVTAGQFRRIVPLPSALRRCTVAGAALREGELRIRFAPDPDLWPRERLEHHHHHH | soluble
15 | MRTNVRLLAYRLLRKYEKEKFISREDVDSVLSFLDDRDRRFFKELVWGVVRKEELLDWYINQLLKKKDIPPAVRVALRMGAYQLLFMNSVPDYAAVSETVKLVKNENFKKLVNAVLRRLRTVPEPKELHLVYSHPEWIVNYWRSFLPEEAVLRIMKWNQEPLPVMLRVNSLAATKEEVIKILAEEGTEAVPGKHAPFSLIVRKLGVPMNDSRVINDGLASVQGESSQLVPFFMELRPGLRVLDTCAAPGGKTTAIAELMKDQGKILAVDISREKIQLVEKHAKRLKLSSIETKIADAERLTEYVQDTFDRVLVDAPCTSLGTARNHPEVLRRVNKEDFEKFSEIQLRMVQQAWQLLEKGGILLYSTCTVTKEENTEVVKRFVYEQKDVEVIDIRDKMKEFEVEGIWDGYGFLMLPDETITPFYISVLRKMG | soluble
16 | MRTPYCVADYLLDRLTDCGADHLFGVPGDYNLQFLDHVIDSPDICWVGCANELNASYAADGYARCKGFAALLTTFGVGELSAMNGIAGSYAEHVPVLHIVGAPGTAAQQRGELLHHTLGDGEFRHFYHMSEPITVAQAVLTEQNACYEIDRVLTTMLRERRPGYLMLPADVAKKAATPPVNALTHKQAHADSACLKAFRDAAENKLAMSKRTALLADFLVLRHGLKHALQKWVKEVPMAHATMLMGKGIFDERQAGFYGTYSGSASTGAVKEAIEGADTVLCVGTRFTDTLTAGFTHQLTPAQTIEVQPHAARVGDVWFTGIPMNQAIETLVELCKQHVHAGLMSSSSGAIPFPQPDGSLTQENFWRTLQTFIRPGDIILADQGTSAFGAIDLRLPADVNFIVQPLWGSIGYTLAAAFGAQTACPNRRVIVLTGDGAAQLTIQELGSMLRDKQHPIILVLNNEGYTVERAIHGAEQRYNDIALWNWTHIPQALSLDPQSECWRVSEAEQLADVLEKVAHHERLSLIEVMLPKADIPPLLGALTKALEACNNA | soluble
17 | MRTVALGIVAMACLVAIAHGGNFFQDAEVSWGQGRGKIVDGGRGLDLTLDRSSGSGFQSKSEYLFGKIDMQIKLVPGNSAGTVTTFYLSSQGSTHDEIDFEFLGNVTGEPYTLHTNVFTQGQGQREQQFRLWFDPTQSFHTYSIIWNPQHVIFAVDGTPIRDFKNHEARGVAFPKSQPMRVYASLWNADDWATQGGRVKADWSKAPFVASFRDFNADACVWSNGAQRCPVGTMETVAAPAGGRRGGAGGWWNQELSDMSYRRMRWVQRKFMIYNYCTDAKRFPQGTPAECKLR | soluble
18 | MRVARLFRFPVKGFPAEEIPEADVRTGRGIRGDRVAAFTNGSLDIPDDSWHRYSAFTVLKNDTDLQKWQVELDLAEAADSSQPAVADPSATVTLTSPQNETTTFRTDDRDTRATSADFLSARIPPQGDFPRALSVADQGMFDSQAAGVSIINPATVAAISQTADGQAALAPGETELDPLRFRGNVLVDGLAPFEEFALIGKIVRLGGVRLAITQAIERCPATTVNPTTTAVDVNVPRVLASACGHLHCGVYGRILESGLVSTGDEIEIEGDAPRELVKTARTPRFMTVLGSQQICNDIVEVSLRDDQGWIREFDEPGTNLRVHLDLGEPFWRTYTITDVSDDIVSIAVRTQGKGSRAVAELAAGQSVLASGPHGTMTANRVFGGTTALVTAGIGITPSLGLMRGAELSGTEKIKLFHVDRDHRTACLWDRLQKRAHSRQIPVETHHRDTASQGRPGHADLVDWLAGCDNVMVCGPADFTRAVLDASAEAGVPAVHQEIFASPNTGMSEAIAQCSPAEVTLENSGTSFLWEPQQGTLLEALEARGLRADNSCRGGSCGTCAVSLAAGSVIYPVEPAARIAADEVLVCSAVPSGPISLGILEHHHHHH | not soluble
19 | MRVFPVTLGPLQENAYLVETGEGPVLIDPGDEPEKLLALFQTTGLIPLAILLTHAHFDHVGAVAPLVEALDLPVYLHPLDLPLYEGADLAARAWGLAIPKPPLPVRPLEEGMRLFGFQVLHLPGHSPGHVAFYDPEGAQVFSGDLLFRGSVGRYDLPGADPKALFASLKRLLSLPPETRVHPGHGPGTTLGLEARTNPFLTGLEWEA | soluble
